The test system of this data set is [H][C@]12SCC(COC(C)=O)=C(C(=O)O)N1C(=O)[C@H]2NC(=O)CCC[C@@H](N)C(=O)O. In words: CPC hydrolysis kinetics (Lineweaver-Burk plot), fivefold mutant. The data set is classed as biochemical, Pseudomonas sp. SE83. As to conditions: other: substrate CPC, purified enzyme, 0.1 M Tris-HCl pH 8.0, 37° C. The protocol:
The enzyme activity of CPC acylase mutant to CPC was measured according to the method described by Park et al. with minor modifications as follows (Park, et al., Kor. J. Appl. Microbiol. Biotechnol. 23: 559-564, 1995). A substrate solution was prepared by dissolving CPC (purity 74.2%; CJ Corp., Korea) in 0.1 M Tris-HCl buffer solution (pH 8.0) at a concentration of 20 mg/ml and adjusting pH to 8 with 1 N NaOH. 20 μl of the CPC solution was mixed with 20 μl of the crude enzyme solution prepared above and the reaction mixture was incubated at 37° C. for 5 min. After the reaction, the mixture (200 μl) of 50 mM NaOH and 20% glacial acetic acid (1:2) was added thereto to stop the reaction. 200 μl of the supernatant recovered from the reaction mixture by centrifugation was mixed with 40 μl of 0.5% (w/v) PDAB (p-dimethylaminobenzaldehyde; Sigma, USA) dissolved in a methanol and the reaction mixture was incubated at 37° C. for 10 min. After the reaction, the absorbance of reaction mixture was measured at 415 nm and quantified by comparing with a calibration curve of standard material. […] Meanwhile, the specific activity of CPC acylase mutant for CPC was determined by measuring the amount of protein remaining in the enzyme solution according to the method described by Bradford (Bradford, M., Anal. Biochem. 72: 248-254, 1976) and representing it as an active unit corresponding to 1 mg of protein. […]

Here are results for one substance from patent US7592168B2, “Cephalosporin C acylase mutant and method for preparing 7-ACA using same” (Sandoz AG, priority 2003, dated 2009).

Turning to “Pseudomonas sp. SE83 CPC acylase AcyII fivefold mutant F169αY/M31βL/F58βM/H70βS/I176βV (mI176) (Pseudomonas sp. SE83; F170Y/F297M/H309S/I415V/M270L)”, the Km came out at 8 mM.
